The experiment has as its target anti-E7 mAb. The experiment is described as follows: ELISA. Conditions: read off a plot. On the technique in general: In an ELISA, binding on a coated surface is turned into a signal by an enzyme label.

The substance “recombinant His-E7 protein of HPV16 (from UniProt P03129) C24P” returned a response of 1.3 OD450.

On to “recombinant His-E7 protein of HPV16 (from UniProt P03129) D36H”, for which the response amounted to 1.3 OD450.

In turn, “recombinant His-E7 protein of HPV16 (from UniProt P03129) E10Q” showed a response of 1.1 OD450.

Regarding “recombinant His-E7 protein of HPV16 (from UniProt P03129) E18Q”, the response was found to be 1 OD450.

Regarding “recombinant His-E7 protein of HPV16 (from UniProt P03129) L22A”, the response amounted to 1 OD450.

These data come from paper PMC7408665.
